Test system: Bv8 and PKR2/EG-VEGFR2 expression
Assay: White blood cells from G-CSF treated donors
Type: in vivo, human
Method: MaxiSorp® 96-well microwell plates (Nalge Nunc International, Rochester, N.Y.) were coated with 1.0 μg/ml 3F1 mouse monoclonal antibody (Genentech Inc.) in 50 mM carbonate buffer, pH 9.6, at 4° C. overnight. Plates were washed with PBS containing 0.05% polysorbate 20 and blocked with 0.5% bovine serum albumin, 15 p.p.m. (parts per million) Proclin 300 (Supelco, Bellefonte, Pa.) in PBS at room temperature for 1 h. After plates were washed, human Bv8 standards (0.020-2.5 ng/ml in 2-fold serial dilution, PeproTech, Rocky Hill, N.J.) and samples (minimum 1:10 dilution) in PBS containing 0.5% bovine serum albumin, 0.05% polysorbate 20, 15 p.p.m. Proclin 300 (Supelco, Bellefonte, Pa.) and 0.35N NaCl (sample buffer) were serially diluted and were added to each well. The plates were incubated for 2 hr at room temperature followed by a washing step. The bound Bv8 was detected by adding the secondary antibody, a biotinylated hamster anti-Bv8 antibody clone 3B8 (Genentech Inc.) followed by adding streptavidin-HRP (GE Healthcare, Buckinghamshire, United Kingdom) and 3,3′,5,5′-tetramethyl benzidine (Kirkegaard & Perry Laboratories, Gaithersburg, Md.) as the substrate. The reaction was stopped by adding 1 M phosphoric acid. Absorbance was read at 450 nm on a ThermoMax microplate reader (Molecular Devices, Menlo Park, Calif.). The titration curves of the standards were calculated using a four-parameter regression curve-fitting program (Genentech Inc). Human Bv8 concentration was calculated by extrapolating the optical density values of samples to the data range in the standard curve. The Bv8 ELISA was capable of measuring up to 10% lysis buffer and had the sensitivity to detect Bv8 as low as 0.20 ng/ml in tissue lysates. […] This ELISA could also detect mouse Bv8 but with less than 7% sensitivity.
Peripheral white blood cells were obtained from normal donors after 4-5 days of G-CSF treatment by apheresis collections (Cellular Therapy and Cell Processing Facilities, Fred Hutchinson Cancer Research Center, Seattle, Wash.). […]

B1: G-CSF: recombinant granulocyte-CSF: mouse or human (R&D Systems) or human Neupogen (Amgen) (protein, chains of the INN, looked up)
chain: MTPLGPASSLPQSFLLKCLEQVRKIQGDGAALQEKLCATYKLCHPEELVLLGHSLGIPWAPLSSCPSQALQLAGCLSQLHSGLFLYQGLLQALEGISPELGPTLDTLQLDVADFATTIWQQMEELGMAPALQPTQGAMPAFASAFQRRAGGVLVASHLQSFLEVSYRVLRHLAQP
- increase in Bv8 protein level in G-CSF mobilized mononuclear cells (ELISA, vs untreated donors): 10 fold
- increase in Bv8 expression in G-CSF mobilized mononuclear cells (donors treated 4-5 days, vs untreated donors): About 4.5 fold
- induction of PKR2/EG-VEGFR2 expression in mononuclear cells (vs un-treated control samples): ~2 fold

From US9284369B2, “Inhibition of angiogenesis” (Genentech, Inc., priority 2007, dated 2016)
